US20240181094A1, “[161Tb]-BASED RADIOPEPTIDES” (priority 2021, published 2024)
Read-outs that look alike come from different tables or passages of the source. Starred links: 1 amine or outer side, 2 acyl side, 3 side chain; linkers in the order of their positions; H or OH if unused. Positions of bridges follow the written chain, without caps; N, C: chain ends. Non-standard residues stand in square brackets, D forms with d. Residues, ends and D or L forms follow the SMILES beside them. *: point of attachment. DOTA = O=C(O)CN1CCN(CC(=O)O)CCN(CC(=O)*)CCN(CC(=O)O)CC1; X1 = NC(=O)Nc1ccc(CC(N[*:1])C(=O)[*:2])cc1; Phe(4-Cl) = N[CH](Cc1ccc(Cl)cc1)C(=O)O

Experiments:
[1] = test system: AR42J tumor-bearing mice; conditions: 0.2 nmol/mouse
Protocol: Five-week-old female, athymic nude mice (CD-1 Foxn-1/nu) were obtained from Charles River Laboratories (Sulzfeld, Germany). Mice were subcutaneously inoculated with AR42 J tumor cells (5×10^6 cells in 100 μl PBS) for SPECT/CT imaging, biodistribution and therapy studies. The SPECT/CT and biodistribution studies were performed 10-14 days after tumor cell inoculation when the tumor size reached a volume of ˜250 mm^3.
The mice were sacrificed at 0.5 h, 2 h, 4 h, 24 h and 48 h p.i, selected tissues and organs were collected, weighed, and the accumulated activity was counted using a γ-counter (Perkin Elmer). The decay-corrected data were listed as % IA/g. The data were analyzed for significance using a two-way ANOVA with Tukey's multiple comparison post-tests. A p-value of <0.05 was considered statistically significant.

[2] = mouse, in vivo
Protocol: Early side effects were assessed based on the RBW of each mouse which was monitored every second day. When an endpoint was reached or at the end of the study (after 49 days), relevant organs and tissues were collected, weighed and put into relation to the brain mass and body weight of the respective mouse. This allowed comparison of organ-to-brain and organ-to-body mass weight ratios. In addition, blood plasma parameters from blood collected immediately after euthanasia were measured.
RBW, organ mass and mass ratios at the endpoint. The RBW was monitored every second day. Mice were euthanized when a predefined endpoint criterion was reached or when the study was terminated at Day 49. RBWs, organ masses, organ mass ratios (kidney-to-brain, liver-to-brain and spleen-to-brain) and organ mass to body weight ratios (kidney-to-body mass, liver-to-body mass and spleen-to-body mass) were analyzed for significance using a one-way ANOVA test with a Tukey's multiple comparisons post-test. A p-value of <0.05 was considered as statistically significant.
Blood plasma chemistry: Immediately before euthanasia of the mice that reached the endpoint, blood was sampled from the retrobulbar vein. The values of creatinine (CRE), blood urea nitrogen (BUN), alkaline phosphatase (ALP), total bilirubin (TBIL) and albumin (ALB) were determined in the plasma after centrifugation of the blood using a dry chemistry analyzer (DRI-CHEM 4000 i, FUJIFILM, Japan). The average blood plasma parameters of each group were analyzed for significance using a one-way ANOVA test with a Tukey's multiple comparisons post-test. A p-value of <0.05 was considered as statistically significant.

[3] = test system: AR42J tumor-bearing mice; assay: Biodistribution studies: assessment of the optimum injected molar amount; conditions: 2 h p.i.
[4] = test system: AR42 J tumor-bearing mice; assay: Preclinical therapy study in AR42 J tumor-bearing mice; type: in vivo; conditions: 2 x 10 MBq

For CC(O)C1NC(=O)C(CCCCN)NC(=O)C(Cc2ccc(NC(N)=O)cc2)NC(=O)C(Cc2ccc(O)cc2)NC(=O)C(NC(=O)C(Cc2ccc(Cl)cc2)NC(=O)CN2CCN(CC(=O)O)CCN(CC(=O)O)CCN(CC(=O)O)CC2)CSSCC(C(=O)NC(Cc2ccc(O)cc2)C(N)=O)NC1=O (stereo not drawn) [metal not drawn] ({DOTA}-[Phe(4-Cl)]CY[X1]KTCY-NH2; disulfide 2-7; configuration not given here), the Blood uptake ([1]; 0.5 h p.i.) was 1.3 ± 0.2 % IA/g, the Blood uptake ([1]; 2 h p.i.) was at most 0.10 % IA/g and the Muscle uptake ([1]; 2 h p.i.) was at most 0.10 % IA/g. It also gave a Spleen uptake ([1]; 2 h p.i.) of 0.41 ± 0.08 % IA/g, a Blood uptake ([1]; 4 h p.i.) of at most 0.10 % IA/g and a Heart uptake ([1]; 4 h p.i.) of at most 0.10 % IA/g. The Kidneys uptake ([1]; 4 h p.i.) was 9.0 ± 1.2 % IA/g, the Muscle uptake ([1]; 4 h p.i.) was at most 0.10 % IA/g and the Blood uptake ([1]; 24 h p.i.) was at most 0.10 % IA/g. It also gave a Heart uptake ([1]; 24 h p.i.) of at most 0.10 % IA/g, a Muscle uptake ([1]; 24 h p.i.) of at most 0.10 % IA/g and a Blood uptake ([1]; 48 h p.i.) of at most 0.10 % IA/g. For the same compound, the Heart uptake ([1]; 48 h p.i.) was at most 0.10 % IA/g, the Muscle uptake ([1]; 48 h p.i.) was at most 0.10 % IA/g and the “ALB (albumin), plasma” value [2] was 22 ± 1 g/L. The “ALP (alkaline phosphatase), plasma” value [2] was 65 ± 15 U/L, the “Organ mass Brain” value [2] was 465 ± 30 mg and the “Organ mass Kidneys” value [2] was 332 ± 46 mg. For the same compound, the “Organ mass Liver” value [2] was 1275 ± 254 mg and the “Organ mass Spleen” value [2] was 85 ± 27 mg.
For C[C@@H](O)[C@@H]1NC(=O)[C@H](CCCCN)NC(=O)[C@@H](Cc2c[nH]c3ccccc23)NC(=O)[C@H](Cc2ccc(O)cc2)NC(=O)[C@@H](NC(=O)[C@@H](Cc2ccccc2)NC(=O)CN2CCN(CC(=O)O)CCN(CC(=O)O)CCN(CC(=O)O)CC2)CSSC[C@@H](C(=O)N[C@H](CO)[C@@H](C)O)NC1=O [[^177Lu]Lu-DOTATOC] [metal not drawn], the “AR42J Tumor uptake” value ([3]; 0.040 nmol/mouse) was 18 ± 3 % IA/g, the Adrenals uptake ([3]; 0.040 nmol/mouse) was 0.65 ± 0.10 % IA/g and the Blood uptake ([3]; 0.040 nmol/mouse) was at most 0.10 % IA/g. For the same compound, the Femur uptake ([3]; 0.040 nmol/mouse) was 0.17 ± 0.05 % IA/g, the Heart uptake ([3]; 0.040 nmol/mouse) was at most 0.10 % IA/g and the Intestines uptake ([3]; 0.040 nmol/mouse) was 0.33 ± 0.05 % IA/g. The Kidneys uptake ([3]; 0.040 nmol/mouse) was 10 ± 2 % IA/g, the Liver uptake ([3]; 0.040 nmol/mouse) was 0.18 ± 0.02 % IA/g and the Lung uptake ([3]; 0.040 nmol/mouse) was 1.1 ± 0.2 % IA/g. It also gave a Muscle uptake ([3]; 0.040 nmol/mouse) of at most 0.10 % IA/g, a Pancreas uptake ([3]; 0.040 nmol/mouse) of 1.9 ± 0.2 % IA/g and a Spleen uptake ([3]; 0.040 nmol/mouse) of 0.39 ± 0.11 % IA/g. For the same compound, the Stomach uptake ([3]; 0.040 nmol/mouse) was 1.7 ± 0.3 % IA/g, the “AR42J Tumor uptake” value ([3]; 0.20 nmol/mouse) was 17 ± 4 % IA/g and the Adrenals uptake ([3]; 0.20 nmol/mouse) was 0.51 ± 0.35 % IA/g. It also gave a Femur uptake ([3]; 0.20 nmol/mouse) of 0.10 ± 0.01 % IA/g, a Heart uptake ([3]; 0.20 nmol/mouse) of at most 0.10 % IA/g and an Intestines uptake ([3]; 0.20 nmol/mouse) of 0.40 ± 0.25 % IA/g. For the same compound, the Kidneys uptake ([3]; 0.20 nmol/mouse) was 10 ± 3 % IA/g, the Liver uptake ([3]; 0.20 nmol/mouse) was 0.15 ± 0.03 % IA/g and the Lung uptake ([3]; 0.20 nmol/mouse) was 0.63 ± 0.03 % IA/g. For the same compound, the Muscle uptake ([3]; 0.20 nmol/mouse) was at most 0.10 % IA/g, the Pancreas uptake ([3]; 0.20 nmol/mouse) was 1.7 ± 0.5 % IA/g and the Spleen uptake ([3]; 0.20 nmol/mouse) was 0.15 ± 0.02 % IA/g. For the same compound, the Stomach uptake ([3]; 0.20 nmol/mouse) was 1.1 ± 0.2 % IA/g, the “AR42J Tumor uptake” value ([3]; 1.0 nmol/mouse) was 8.9 ± 1.5 % IA/g and the Adrenals uptake ([3]; 1.0 nmol/mouse) was 0.28 ± 0.08 % IA/g. The Blood uptake ([3]; 1.0 nmol/mouse) was at most 0.10 % IA/g, the Femur uptake ([3]; 1.0 nmol/mouse) was at most 0.10 % IA/g and the Heart uptake ([3]; 1.0 nmol/mouse) was at most 0.10 % IA/g. It also gave an Intestines uptake ([3]; 1.0 nmol/mouse) of 0.20 ± 0.05 % IA/g, a Kidneys uptake ([3]; 1.0 nmol/mouse) of 11 ± 1 % IA/g and a Liver uptake ([3]; 1.0 nmol/mouse) of 0.26 ± 0.07 % IA/g. It also gave a Lung uptake ([3]; 1.0 nmol/mouse) of 0.37 ± 0.06 % IA/g, a Muscle uptake ([3]; 1.0 nmol/mouse) of at most 0.10 % IA/g and a Pancreas uptake ([3]; 1.0 nmol/mouse) of 0.80 ± 0.13 % IA/g. It also gave a Spleen uptake ([3]; 1.0 nmol/mouse) of 0.15 ± 0.03 % IA/g, a Stomach uptake ([3]; 1.0 nmol/mouse) of 0.65 ± 0.11 % IA/g and a kidney uptake ([3]; irrespective of the injected amount of peptide) of about 10 % IA/g. For the same compound, the “ALB (albumin), plasma” value [2] was 24 ± 5 g/L, the “ALP (alkaline phosphatase), plasma” value [2] was 77 ± 8 U/L and the “BUN (blood urea nitrogen), plasma” value [2] was 6.3 ± 0.9 mmol/L. For the same compound, the “CRE (creatinine), plasma” value [2] was under 18 µmol/L, the “Organ mass Brain” value [2] was 453 ± 31 mg and the “Organ mass Kidneys” value [2] was 342 ± 23 mg. The “Organ mass Liver” value [2] was 1121 ± 123 mg, the “Organ mass Spleen” value [2] was 90 ± 17 mg and the tumor growth delay ([4]; 0.2 nmol (Day 0, Day 7)) was 6.0 ± 4.4 days. The tumor doubling time ([4]; 0.2 nmol, regrowth phase, fitted exponential curve) was 3.4 ± 0.8 days.
